From article PMC9661471 (Journal of Medicinal Chemistry, 2022)
One block for each molecule: values may come before it. *1 amine or outer side, *2 acyl side, *3 side chain or, on linkers, in order; H or OH if unused. Bridges are numbered along the chain shown (N, C = ends). TATA = O=C(CC[*:1])N1CN(C(=O)CC[*:2])CN(C(=O)CC[*:3])C1

Columns and labels:
[1] = target: human Nectin-4 ECD (human) (UniProt Q96NY8); assay: SPR
human Nectin-4 ECD = target: T1, human Nectin-4 ECD (human, UniProt Q96NY8 32-349); assay: fluorescence polarisation
T1 sequence (looked up): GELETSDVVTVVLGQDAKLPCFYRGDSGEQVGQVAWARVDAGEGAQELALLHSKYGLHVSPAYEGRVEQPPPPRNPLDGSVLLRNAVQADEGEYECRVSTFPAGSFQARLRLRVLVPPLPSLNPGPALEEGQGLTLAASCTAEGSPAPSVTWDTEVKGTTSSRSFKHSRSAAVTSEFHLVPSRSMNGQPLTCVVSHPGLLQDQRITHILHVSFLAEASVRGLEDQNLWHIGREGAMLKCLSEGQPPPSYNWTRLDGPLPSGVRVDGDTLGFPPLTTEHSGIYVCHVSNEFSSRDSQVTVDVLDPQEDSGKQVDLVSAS

Molecule: Bicycle Toxin Conjugate BT8009 (peptide)
- Kd [1]: 0.0025 µM

- Ki (human Nectin-4 ECD): 0.0135 µM
Molecule: Ac-CPFGCMKNWSWPIWCTNK-NH2 (linker 1-5-15 via TATA) [Bicycle 8]

- Ki (human Nectin-4 ECD): 0.0176 µM
B1: Bicycle 10 (peptide)
peptide: Ac-CPFGCMKNWSWPIWC-NH2
modifications: linker 1-5-15 via TATA
SMILES: CC[C@H](C)[C@@H]1NC(=O)[C@@H]2CCCN2C(=O)[C@H](Cc2c[nH]c3ccccc23)NC(=O)[C@H](CO)NC(=O)[C@H](Cc2c[nH]c3ccccc23)NC(=O)[C@H](CC(N)=O)NC(=O)[C@H](CCCCN)NC(=O)[C@H](CCSC)NC(=O)[C@@H]2CSCCC(=O)N3CN(CN(C3)C(=O)CCSC[C@H](NC(C)=O)C(=O)N3CCC[C@H]3C(=O)N[C@@H](Cc3ccccc3)C(=O)NCC(=O)N2)C(=O)CCSC[C@@H](C(N)=O)NC(=O)[C@H](Cc2c[nH]c3ccccc23)NC1=O
